Read-outs that look alike come from different tables or passages of the source.
Experiments:
NPH-II [1] = biological target: T1, NPH-II (vaccinia virus, UniProt P12927 1-676); experiment: smFRET
NPH-II [2] = biological target: T1, NPH-II; experiment: smFRET; remark: listed apart in the source
NPH-II [3] = biological target: T1, NPH-II; experiment: smFRET; remark: listed apart in the source
NPH-II [4] = biological target: T1, NPH-II; experiment: sucrose gradient centrifugation
NPH-II [5] = biological target: T1, NPH-II; experiment: sucrose gradient centrifugation; remark: listed apart in the source
NPH-II [6] = biological target: T1, NPH-II; experiment: sucrose gradient centrifugation; remark: listed apart in the source

B1: smFRET bipartite RNA with two extra 3' U on complementary strand (dsRNA)
RNA 1: AGCACCGUAAAGACGCAGCCAGCAUCAAUGACAUCAGCAUCAA
RNA 2: GCUGCGUCUUUACGGUGCUUU
modifications: 3' biotin on strand 2
B1 was tested, and the Kd (NPH-II [1]) was 0.91 ± 0.12 nM, the Kd (NPH-II [2]) was 20.8 ± 7.5 nM and the Kd (NPH-II [3]) was < 0.01 nM.

B2: bipartite RNA, 19 bp duplex with 24 nt 3' overhang (dsRNA)
RNA 1: AGCACCGUAAAGACGCAGCCAGCAUCAAUGACAUCAGCAUCAA
RNA 2: GCUGCGUCUUUACGGUGCU
B2: binds (NPH-II [4]).

B3: blunt-end duplex RNA 19 bp (dsRNA)
RNA 1: AGCACCGUAAAGACGCAGC
RNA 2: GCUGCGUCUUUACGGUGCU
B3: binds (NPH-II [5]).

CAGCAUCAAUGACAUCAGCAUCAA (ssRNA) [single-stranded RNA 24 nt (overhang)]: binds (NPH-II [6]).
